Experimental data reported in the supplement of paper PMC12458215.
± gives the uncertainty stated by the source.

Tested on: HEK293T
Assay: plasma membrane surface immunostaining intensity (anti-HA, deep receptor scanning) (arbitrary fluorescence units); higher = higher plasma membrane expression

MEWGYLLEVTSLLAALALLQRSSGAAAASAKELACQEITVPLCKGIGYNYTYMPNQFNHDTQDEAGLEVHQFWPLVEIQCSPDLKFFLCSMYTPICLEDYKKPLPPCRSVCERAKAGCAPLMRQYGFAWPDRMRCDRLPEQGNPDTLCMDYNRTDLTTAAPSPPRRLPPPPPGEQPPSGSGHGRPPGARPPHRGGGRGGGGGDAAAPPARGGGGGGKARPPGGGAAPCEPGCQCRAPMVSVSSERHPLYNRVKTGQIANCALPCHNPFFSQDERAFTVFWIGLWSVLCFVSTFATVSTFLIDMERFKYPERPIIFLSACYLFVSVGYLVRLVAGHEKVACSGGAPGAGGAGGAGGAAAGAGAAGAGAGGPGGRGEYEELGAVEQHVRYETTGPALCTVVFLLVYFFGMASSIWWVILSLTWFLAAGMKWGNEAIAGYSQYFHLAAWLVPSVKSIAVLALSSVDGDPVAGICYVGNQSLDNLRGFVLAPLVIYLFIGTMFLLAGFVSLFRIRSVIKQQDGPTKTHKLEKLMIRLGLFTVLYTVPAAVVVACLFYEQHNRPRWEATHNCPCLRDLQPDQARRPDYAVFMLKYFMCLVVGITSGVWVWSGKTLESWRSLCTRCCWASKGAAVGGGAGATAAGGGGGPGGGGGGGPGGGGGPGGGGGSLYSDVSTGLTWRSGTASSVSYPKQMPLSQV [FZD8]
plasma membrane surface immunostaining intensity (GPCR class: F): 225 ± 23

MDTGNWSQVAEFIILGFPHLQGVQIYLFLLLLLIYLMTVLGNLLIFLVVCLDSRLHTPMYHFVSILSFSELGYTAATIPKMLANLLSEKKTISFSGCLLQIYFFHSLGATECYLLTAMAYDRYLAICRPLHYPTLMTPTLCAEIAIGCWLGGLAGPVVEISLISRLPFCGPNRIQHVFCDFPPVLSLACTDTSINVLVDFVINSCKILATFLLILCSYVQIICTVLRIPSAAGKRKAISTCASHFTVVLIFYGSILSMYVQLKKSYSLDYDQALAVVYSVLTPFLNPFIYSLRNKEIKEAVRRQLKRIGILA [OR6N1]
plasma membrane surface immunostaining intensity (GPCR class: A (Olfactory)): 347 ± 130

MAGAPGPLRLALLLLGMVGRAGPRPQGATVSLWETVQKWREYRRQCQRSLTEDPPPATDLFCNRTFDEYACWPDGEPGSFVNVSCPWYLPWASSVPQGHVYRFCTAEGLWLQKDNSSLPWRDLSECEESKRGERSSPEEQLLFLYIIYTVGYALSFSALVIASAILLGFRHLHCTRNYIHLNLFASFILRALSVFIKDAALKWMYSTAAQQHQWDGLLSYQDSLSCRLVFLLMQYCVAANYYWLLVEGVYLYTLLAFSVLSEQWIFRLYVSIGWGVPLLFVVPWGIVKYLYEDEGCWTRNSNMNYWLIIRLPILFAIGVNFLIFVRVICIVVSKLKANLMCKTDIKCRLAKSTLTLIPLLGTHEVIFAFVMDEHARGTLRFIKLFTELSFTSFQGLMVAILYCFVNNEVQLEFRKSWERWRLEHLHIQRDSSMKPLKCPTSSLSSGATAGSSMYTATCQASCS [GLP1R]
plasma membrane surface immunostaining intensity (GPCR class: B): 560 ± 52

MLGIMAWNATCKNWLAAEAALEKYYLSIFYGIEFVVGVLGNTIVVYGYIFSLKNWNSSNIYLFNLSVSDLAFLCTLPMLIRSYANGNWIYGDVLCISNRYVLHANLYTSILFLTFISIDRYLIIKYPFREHLLQKKEFAILISLAIWVLVTLELLPILPLINPVITDNGTTCNDFASSGDPNYNLIYSMCLTLLGFLIPLFVMCFFYYKIALFLKQRNRQVATALPLEKPLNLVIMAVVIFSVLFTPYHVMRNVRIASRLGSWKQYQCTQVVINSFYIVTRPLAFLNSVINPVFYFLLGDHFRDMLMNQLRHNFKSLTSFSRWAHELLLSFREK [SUCNR1]
plasma membrane surface immunostaining intensity (GPCR class: A): 528 ± 61

MSIMMLPMEQKIQWVPTSLQDITAVLGTEAYTEEDKSMVSHAQKSQHSCLSHSRWLRSPQVTGGSWDLRIRPSKDSSSFRQAQCLRKDPGANNHLESQGVRGTAGDADRELRGPSEKATAGQPRVTLLPTPHVSGLSQEFESHWPEIAERSPCVAGVIPVIYYSVLLGLGLPVSLLTAVALARLATRTRRPSYYYLLALTASDIIIQVVIVFAGFLLQGAVLARQVPQAVVRTANILEFAANHASVWIAILLTVDRYTALCHPLHHRAASSPGRTRRAIAAVLSAALLTGIPFYWWLDMWRDTDSPRTLDEVLKWAHCLTVYFIPCGVFLVTNSAIIHRLRRRGRSGLQPRVGKSTAILLGITTLFTLLWAPRVFVMLYHMYVAPVHRDWRVHLALDVANMVAMLHTAANFGLYCFVSKTFRATVRQVIHDAYLPCTLASQPEGMAAKPVMEPPGLPTGAEV [GPR142]
plasma membrane surface immunostaining intensity (GPCR class: A): 165 ± 58
